In US20070009975A1 (DAKOCYTOMATION DENMARK A S, published 2007):

Tests used:
[1] = target: T1, alkylhydroperoxide-reductase of H. pylori (26 kDa-protein) (Helicobacter pylori, UniProt P21762 1-198); experiment: sandwich ELISA: polyclonal rabbit anti-H. pylori antigen as catcher, antigen diluted 1:2 from 50 ng/ml, mAb supernatant as detector; lowest antigen concentration with extinction >= 2x control
T1 construct: Purified as an oligomer; also called 26 kDa-antigen; Alkylhydroperoxide reduktase
T1 sequence (looked up): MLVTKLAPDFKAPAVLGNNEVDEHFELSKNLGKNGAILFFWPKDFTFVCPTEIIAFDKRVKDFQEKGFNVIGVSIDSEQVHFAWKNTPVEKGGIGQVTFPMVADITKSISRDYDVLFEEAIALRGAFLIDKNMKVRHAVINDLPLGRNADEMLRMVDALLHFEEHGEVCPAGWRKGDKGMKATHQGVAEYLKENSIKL
Procedure: (§1) Between the single steps the ELISA plate was washed 2 to 3 times with 300 μl PBS with 0.025% Tween (washing buffer) (vol.:vol.). The ELISA plates (MaxiSorb; Nunc) were coated for 1 hour at 37° C. with 100 μl of a solution of a polyclonal rabbit-anti-H. pylori antigen (pAK; approx. 10 μg antibody/ml carbonate buffer, 0.1 M, pH 9.5). In order to block the binding-sites that are still free 200 μl 150 mM PBS with 2% skimmed-milk powder (weight:volume) were pipetted per dish and incubated for 30 min at room temperature. 50 ng/ml purified H. pylori antigens solved in 150 mM PBS were diluted adding 0.1% skimmed-milk powder in 1:2 steps. The buffer served as a negative control. Then, 100 μl culture supernatant diluted 1:10 of the mAK against the same antigen, which is to be analysed, was added and incubated for 30 for 60 min at room temperature. […] The lowest concentration in which an extinction was still detected that was larger than or the same as twice the control was accepted as detection limit.

[2] = target: H. pylori urease (oligomeric, purified) (Helicobacter pylori, UniProt P14916 1-238; P69996 1-569); experiment: SPR (BIAcore), mAb captured by rabbit anti-mouse antibody, H. pylori antigen injected; unit inferred
Procedure: First, a polyclonal rabbit-anti-mouse antibody was immobilised on the dextran matrix of the BIAcore CM5 glass carrier chip. By adding the first H. pylori antigen-specific monoclonal antibody (1. MAK; 100 μg/ml; 10 μl), it reacted with the immobilised catching antibody and the respective change was measured at the detector (ΔRU₁; RU Resonance Units). After adding the H. pylori antigen (45 μg/ml; 5 μl), it reacted with the first mAK. Then, the remaining free catching antibody was blocked with an unspecific mouse-antibody (1 mg/ml; 10 μl) and oligomeric epitopes by adding another first mAK (100 μg/ml; 10 μl). After the reaction then following of the second H. pylori-antigen-specific antibody (2nd mAK; 100 μg/ml; 10 μl) with the bound antigen, the change in the signal of the detector (ΔRU₂) was determined anew and was compared in percentage to the change at the detector after adding the 1st mAK (ΔRU₂/ΔRU₁). A ratio of ΔRU₂/ΔRU₁<10% indicated overlapping epitopes.

[3] = target: β-urease (large subunit) of H. pylori (Helicobacter pylori, UniProt P69996 1-569); experiment: sandwich ELISA: polyclonal rabbit anti-H. pylori antigen as catcher, antigen diluted 1:2 from 50 ng/ml, mAb supernatant as detector; lowest antigen concentration with extinction >= 2x control
Procedure: as §1

Hsp60 of H. pylori = target: T2, Hsp60 of H. pylori (Helicobacter pylori, UniProt P42383 1-546); experiment: as above
T2 construct: Purified as an oligomer
T2 sequence (P42383 whole entry): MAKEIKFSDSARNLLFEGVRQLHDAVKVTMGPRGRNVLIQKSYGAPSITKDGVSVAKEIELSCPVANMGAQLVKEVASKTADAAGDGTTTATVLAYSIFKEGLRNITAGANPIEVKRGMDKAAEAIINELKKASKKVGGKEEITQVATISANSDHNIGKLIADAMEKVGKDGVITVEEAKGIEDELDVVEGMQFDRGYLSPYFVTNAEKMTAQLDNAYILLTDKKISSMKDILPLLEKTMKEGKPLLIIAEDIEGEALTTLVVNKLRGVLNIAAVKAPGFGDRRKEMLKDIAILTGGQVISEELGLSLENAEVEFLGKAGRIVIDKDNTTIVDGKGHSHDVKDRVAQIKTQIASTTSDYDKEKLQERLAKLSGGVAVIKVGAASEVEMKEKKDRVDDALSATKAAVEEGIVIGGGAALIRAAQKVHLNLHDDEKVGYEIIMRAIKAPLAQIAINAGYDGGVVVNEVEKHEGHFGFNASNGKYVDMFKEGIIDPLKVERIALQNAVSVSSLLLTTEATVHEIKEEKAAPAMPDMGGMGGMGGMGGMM
Procedure: as §1

Sequence of β-urease (large subunit) of H. pylori (P69996 whole entry): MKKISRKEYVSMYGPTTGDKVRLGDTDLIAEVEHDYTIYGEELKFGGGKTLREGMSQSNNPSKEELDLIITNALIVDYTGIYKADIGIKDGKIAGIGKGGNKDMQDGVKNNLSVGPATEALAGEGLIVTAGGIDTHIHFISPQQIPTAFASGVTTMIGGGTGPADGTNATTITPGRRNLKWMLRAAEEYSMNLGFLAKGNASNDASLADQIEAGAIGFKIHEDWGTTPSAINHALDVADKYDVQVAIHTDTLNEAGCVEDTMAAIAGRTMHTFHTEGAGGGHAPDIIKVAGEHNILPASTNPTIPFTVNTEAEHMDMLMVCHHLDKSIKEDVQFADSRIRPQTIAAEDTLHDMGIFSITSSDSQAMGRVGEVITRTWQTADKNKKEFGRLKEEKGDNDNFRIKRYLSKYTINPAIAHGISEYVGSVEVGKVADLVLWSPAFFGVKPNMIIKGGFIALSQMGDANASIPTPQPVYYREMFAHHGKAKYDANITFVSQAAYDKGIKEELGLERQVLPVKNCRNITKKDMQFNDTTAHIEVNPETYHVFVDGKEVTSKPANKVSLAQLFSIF
Sequence of H. pylori urease (oligomeric, purified) (P14916 whole entry, chain 1 of 2): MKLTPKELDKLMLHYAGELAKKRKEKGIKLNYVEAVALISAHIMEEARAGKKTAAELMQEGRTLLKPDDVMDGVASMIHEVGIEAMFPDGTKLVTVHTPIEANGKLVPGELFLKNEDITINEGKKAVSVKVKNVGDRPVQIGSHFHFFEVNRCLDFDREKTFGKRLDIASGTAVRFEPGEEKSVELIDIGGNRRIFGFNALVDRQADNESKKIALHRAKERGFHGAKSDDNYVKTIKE
Sequence of H. pylori urease (oligomeric, purified) (P69996 whole entry, chain 2 of 2): as the sequence (P69996 whole entry) above

B1: HP15m/3E8-D9-D6 (antibody, IgG1, V domains shown)
VH: VQLLEESGGGLVQPTGSLKLSCAASGFTFNSYAMYWVRQAPGKGLEWVARIRSKSDNYATYYANSVKDRLTISRDDSQNMLYLQMNNLKTEDTAMYYCVRDHDKFPFYYALDYWGPGTLVTVSS
VL: ELVLTQSPTIMSASLGERVTMTCTASSSVSSSYLHWYQQKPGSSPKLWIYSTSNLASGVPVRFSGSGSVTSYSLTISSMEAEDAATYYCHQYHRSPPTFGGGTKLEIK
notes: Murine; also called DSM ACC2355
NWG (detection limit) [1]: 0.6 ng Ag/ml

B2: HP8m/4H5-D4-C9 (antibody, V domains shown)
VH: VQLLEQSGAELVKPGASVKISCKASGYAFSTSWMNWVKQRPGKGLEWIGRIYPGDGDTNYNGKFKGKATLTADKSSSTAYMQLNSLTSEDSAVYFCVREDAYYSNPYSLDYWGQGTSVTVSS
VL: DILLTQSPAILSVSPGERVSFSCRASQSIGTRIHWYQQRTNGSPRLLIKYGSESISGIPSRFSGSGSGTDFSLSINSVESEDIADYYCQQSNTWPLTFGAGTKLELK
notes: also called DSM ACC2360; first monoclonal antibody that is specific to urease
koff [2]: 4.5e-06 s⁻¹ | NWG (detection limit) [3]: 0.6 ng Ag/ml

B3: HP16m/2A5-E6-E5 (antibody, mouse IgG1, V domains shown)
VH: VQLLEESGPGLVAPSQSLSITCTVSGFSLSRYSVHWVRQPPGKGLEWLGMIWGGGSTDYNSGLKSRLSISNDNSKSQVFLKMNSLQTDDTAIYYCARNMGGRYPDYFDYWGQGTTLTVSS
VL: DIVLTQSPASLAVSLGQRATISCRASKSVSTSGYSYIHWYQQKPGQPPKLLIFLASNLESGVPARFSGSGSGTDFTLNIHPVEEEDAATYHCQHSRELPLTFGAGTKLELK
notes: also called DSM ACC2356
NWG (detection limit) (Hsp60 of H. pylori): 3 ng Ag/ml

B4: HP9.1m/3C2-F8-E2 (antibody, mouse IgG1, V domains shown)
VH: VQLLEESGGGLVKPGGSLQLSCSASGFTFSSHFMSWVRQTPEKRLEWVASISSGGDSFYPDSLKGRFAISRDNARNILFLQMSSLRSEDSAMYFCTRDYSWYALDYWGQGTSVTVSS
VL: ELQMTQSPSSLSASLGDTITITCHASQNINVWLSWYQQKPGDIPKLLIYKASNLHTGVPSRFSGSGSGTGFTLVISSLQPEDIATYYCQQGRSYPLTFGAGTKLELK
notes: also called DSM ACC2362; second monoclonal antibody that is specific to urease
NWG (detection limit) [3]: 1.2 ng Ag/ml
